The record followed here is PMC8234031, “Modular Assembly of Phosphite Dehydrogenase and Phenylacetone Monooxygenase for Tuning Cofactor Regeneration” (Biomolecules, 2021).

For series [1], the target named is T1, PTDHI (phosphite dehydrogenase with a C-terminal RIDD tag).
T1 chain: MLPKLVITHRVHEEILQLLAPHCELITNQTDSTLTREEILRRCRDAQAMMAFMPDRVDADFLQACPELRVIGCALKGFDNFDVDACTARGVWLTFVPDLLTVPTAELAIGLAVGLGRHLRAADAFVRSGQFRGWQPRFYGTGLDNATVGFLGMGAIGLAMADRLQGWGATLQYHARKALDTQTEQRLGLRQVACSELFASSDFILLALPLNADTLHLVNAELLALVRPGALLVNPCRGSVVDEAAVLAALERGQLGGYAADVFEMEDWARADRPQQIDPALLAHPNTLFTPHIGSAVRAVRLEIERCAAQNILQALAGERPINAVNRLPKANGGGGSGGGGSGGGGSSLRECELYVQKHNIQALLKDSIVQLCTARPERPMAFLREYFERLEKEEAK
Description: SEC; each purified tagged protein alone, in the absence of any other tagged protein; Superdex 200 (10/300), 50 mM Tris–HCl with 150 mM NaCl, pH 7.5. The settings on record: both partners purified.

Series [2] deals with the molecule itself. Described as above.

One may read the stoichiometry N as the number of molecules, sites or subunits per partner or assembly.

B1: PTDHI (phosphite dehydrogenase with a C-terminal RIDD tag) (enzyme)
chain: MLPKLVITHRVHEEILQLLAPHCELITNQTDSTLTREEILRRCRDAQAMMAFMPDRVDADFLQACPELRVIGCALKGFDNFDVDACTARGVWLTFVPDLLTVPTAELAIGLAVGLGRHLRAADAFVRSGQFRGWQPRFYGTGLDNATVGFLGMGAIGLAMADRLQGWGATLQYHARKALDTQTEQRLGLRQVACSELFASSDFILLALPLNADTLHLVNAELLALVRPGALLVNPCRGSVVDEAAVLAALERGQLGGYAADVFEMEDWARADRPQQIDPALLAHPNTLFTPHIGSAVRAVRLEIERCAAQNILQALAGERPINAVNRLPKANGGGGSGGGGSGGGGSSLRECELYVQKHNIQALLKDSIVQLCTARPERPMAFLREYFERLEKEEAK
modifications: PTDH taken as the thermostable A176R variant of PDB 4E5P (cited in Figure 1); the exact pCRE2 variant and C-terminus are not printed. RIDD taken as the conventional RI-alpha docking domain …
Turning to B1, the “stoichiometry N” value in series [1] was determined as 2.

B2: PAMOI (phenylacetone monooxygenase with a C-terminal RIDD tag) (enzyme)
chain: MAGQTTVDSRRQPPEEVDVLVVGAGFSGLYALYRLRELGRSVHVIETAGDVGGVWYWNRYPGARCDIESIEYCYSFSEEVLQEWNWTERYASQPEILRYINFVADKFDLRSGITFHTTVTAAAFDEATNTWTVDTNHGDRIRARYLIMASGQLSVPQLPNFPGLKDFAGNLYHTGNWPHEPVDFSGQRVGVIGTGSSGIQVSPQIAKQAAELFVFQRTPHFAVPARNAPLDPEFLADLKKRYAEFREESRNTPGGTHRYQGPKSALEVSDEELVETLERYWQEGGPDILAAYRDILRDRDANERVAEFIRNKIRNTVRDPEVAERLVPKGYPFGTKRLILEIDYYEMFNRDNVHLVDTLSAPIETITPRGVRTSEREYELDSLVLATGFDALTGALFKIDIRGVGNVALKEKWAAGPRTYLGLSTAGFPNLFFIAGPGSPSALSNMLVSIEQHVEWVTDHIAYMFKNGLTRSEAVLEKEDEWVEHVNEIADETLYPMTASWYTGANVPGKPRVFMLYVGGFHRYRQICDEVAAKGYEGFVLTGGGGSGGGGSGGGGSSLRECELYVQKHNIQALLKDSIVQLCTARPERPMAFLREYFERLEKEEAK
B2: the “stoichiometry N” value in series [2] was 2.
